Literature values in article PMC2778592.

Biological target: EGFR (Homo sapiens) (UniProt P00533)

For “tenascin-C Ten14 EGF-L repeat (from UniProt P24821)”, the Kd is listed as 74 µM.
